Measured values taken from publication PMC8511506 (Cell Reports, 2021).

B1: CYLD CAP-Gly3 (aa 460-582) (domain or fragment, human, UniProt Q9NQC7 460-582, looked up)
chain: LAMPPGNSHGLEVGSLAEVKENPPFYGVIRWIGQPPGLNEVLAGLELEDECAGCTDGTFRGTRYFTCALKKALFVKLKSCRPDSRFASLQPVSNQIERCNSLAFGGYLSEVVEENTPPKMEKE
notes: CYLD, human, third CAP-Gly domain with flanking residues, aa 460-582; 15N- or 15N,13C-labelled where it was the observed protein in NMR; also called pOPINS-CYLD 460-582; source: E. coli Rosetta2 (DE3) pLacI, purified (HisTrap, anion exchange, SEC)

Experiments:
Details in all cases: both partners purified
Ubiquitin [1] = biological target: T1, Ubiquitin (UniProt P0CG47 1-76); test: crystal structure; CAP-Gly3 co-crystallised with 1.1 molar excess of Ub, sitting-drop vapor diffusion; molecular replacement
T1 construct: ubiquitin (mono-ubiquitin), the cut product of the ubiquitin precursors; 15N-labelled in the Ub-observed NMR experiments, unlabelled in ITC, crystallisation and the CAP-Gly-observed NMR

Ubiquitin [2] = biological target: T1, Ubiquitin; test: NMR titration; 15N-labelled Ub observed (BEST-TROSY, weighted chemical shift perturbations), unlabelled CAP-Gly domain added (3-fold molar excess for CAP-Gly3); 298 K; 20 mM Tris pH 7.4, 100 mM NaCl, 4 mM DTT
[3] = biological target: B1; test: NMR titration; isotope-labelled CAP-Gly domain or variant observed (BEST-TROSY, chemical shift perturbations), unlabelled partner added (Ub at 3-fold molar excess, or NEMO ZnF); 298 K; 20 mM Tris pH 7.4, 100 mM NaCl, 4 mM DTT
[4] = biological target: T2, CYLD CAP-Gly3 L475P (aa 467-582) (human, UniProt Q9NQC7 467-582, L475P); test: as above
T2 construct: CYLD, human, third CAP-Gly domain, aa 467-582, with L475P; Isotope-labelled for NMR; also called pOPINS-CYLD 467-582 L475P; source: E. coli Rosetta2 (DE3) pLacI, purified (HisTrap, anion exchange, SEC)
T2 sequence (looked up): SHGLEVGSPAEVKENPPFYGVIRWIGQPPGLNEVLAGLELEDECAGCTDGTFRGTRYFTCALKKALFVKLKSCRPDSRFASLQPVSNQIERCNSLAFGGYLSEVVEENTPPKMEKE

| Binder | binding result (Ubiquitin [1]) | binding result (Ubiquitin [2]) | also measured |
| --- | --- | --- | --- |
| CYLD CAP-Gly3 (aa 467-565), crystal form 2 (domain or fragment, human, UniProt Q9NQC7 467-565, looked up, also called CAP-Gly3 (467-565); source: E. coli Rosetta2 (DE3) pLacI, purified (HisTrap, anion exchange, SEC)) SHGLEVGSLAEVKENPPFYGVIRWIGQPPGLNEVLAGLELEDECAGCTDGTFRGTRYFTCALKKALFVKLKSCRPDSRFASLQPVSNQIERCNSLAFGG | binds |  |  |
| CYLD CAP-Gly2 (aa 226-313) (domain or fragment, human, UniProt Q9NQC7 226-313, looked up, CYLD, human, second CAP-Gly domain, aa 226-313; Isotope-labelled where it was the observed protein in NMR; also called pOPINS-CYLD 226-313; source: E. coli Rosetta2 (DE3) pLacI, purified (HisTrap, anion exchange, SEC)) ELPPLEINSRVSLKVGETIESGTVIFCDVLPGKESLGYFVGVDMDNPIGNWDGRFDGVQLCSFACVESTILLHINDIIPALSESVTQE |  | binds |  |
| B1 |  | binds |  |
| CYLD CAP-Gly3 (aa 467-552), crystal form 1 (domain or fragment, human, UniProt Q9NQC7 467-552, looked up, CYLD, human, third CAP-Gly domain extended C-terminally, aa 467-552 (the crystallisation methods say 465-552); also called CAP-Gly3 (467-552); source: E. coli Rosetta2 (DE3) pLacI, purified (HisTrap, anion exchange, SEC)) SHGLEVGSLAEVKENPPFYGVIRWIGQPPGLNEVLAGLELEDECAGCTDGTFRGTRYFTCALKKALFVKLKSCRPDSRFASLQPVS | binds |  |  |
| SQRRSPPEEPPDFCCPKCQYQAPDMDTLQIHVMECIE (domain or fragment, UniProt Q9Y6K9 383-419, looked up, NEMO/IKKγ, zinc finger domain, aa 383-419; Expression and purification of this construct are not described; also called NEMO/IKKγ; pOPINB-NEMO 383-419) [NEMO ZnF domain (aa 383-419)] |  |  | binding result [3]: binds; binding result [4]: binds |
